Earlier results on one substance are cited in publication PMC3962485.

This data set concerns the target Hsc70 (UniProt P11142).
UniProt P11142, sequence (P11142 2-646): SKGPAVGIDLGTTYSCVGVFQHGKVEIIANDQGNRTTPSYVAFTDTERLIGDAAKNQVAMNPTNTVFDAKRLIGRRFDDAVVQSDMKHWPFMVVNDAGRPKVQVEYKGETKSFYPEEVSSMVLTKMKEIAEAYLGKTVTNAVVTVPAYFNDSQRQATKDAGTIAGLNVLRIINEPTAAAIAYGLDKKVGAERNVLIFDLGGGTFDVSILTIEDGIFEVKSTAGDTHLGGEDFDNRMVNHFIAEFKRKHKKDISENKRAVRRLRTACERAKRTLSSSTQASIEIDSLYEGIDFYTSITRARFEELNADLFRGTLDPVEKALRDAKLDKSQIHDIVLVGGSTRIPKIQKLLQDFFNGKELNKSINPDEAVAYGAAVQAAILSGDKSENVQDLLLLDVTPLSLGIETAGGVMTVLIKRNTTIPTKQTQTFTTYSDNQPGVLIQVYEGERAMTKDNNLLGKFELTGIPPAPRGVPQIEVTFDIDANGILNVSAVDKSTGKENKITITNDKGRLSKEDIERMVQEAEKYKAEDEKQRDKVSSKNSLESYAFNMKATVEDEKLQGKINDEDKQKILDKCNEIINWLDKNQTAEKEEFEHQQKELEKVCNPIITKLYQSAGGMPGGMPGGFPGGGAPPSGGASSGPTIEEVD

For Snl1-M (from UniProt P40548), the Kd is 5 µM.

For orientation: Kd means the equilibrium constant for the complex coming apart.
